Experimental data reported in patent US20230212319A1, “NOVEL ANTIGEN BINDING DOMAINS AND SYNTHETIC ANTIGEN RECEPTORS INCORPORATING THE SAME” (University of Southern California, priority 2020, published 2023).

Assays:
Format in all cases: cell-based
L363 cells = assay: JNG assay, co-culture with L363 cells
In short: (§1)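 Jurkat-NFAT-GFP (JNG) cells stably expressing SAR constructs via lentiviral transduction and puromycin/blasticidin selection were cocultured with target cells at E:T ~1:2 for ~4–18 h. NFAT-driven GFP was measured by FACS versus parental JNG cells; scores +/- to 5+ denote ~5–50% GFP-positive cells.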

RAJI cells = assay: JNG assay, co-culture with RAJI cells; conditions: for NFAT-GFP ASSAY: Raji: JNG cells expressing construct, co-culture with Raji
In short: as §1

RAJI-CD19-KO cells = assay: JNG assay, co-culture with RAJI-CD19-KO cells; conditions: for NFAT-GFP ASSAY: Raji-CD19-KO: co-culture with Raji-CD19-KO
Description: Cellular supernatant is collected and assayed for the induction of cytokines (e.g., IL2).
JNG (Jurkat cells expressing EGFP under an NFAT promoter) were infected with lentiviral vectors encoding different single chain and multi-chain SARs by spinfection in the presence of 8 µg/ml of Polybrene® (Sigma, Catalog no. H9268). The Jurkat-NFAT-GFP cells are engineered in such a way that the IL-2 promoter, which carries NFAT binding sites, is cloned upstream of the GFP gene. These cells have been used to study signaling via TCR and CAR. The different SARs were stably expressed in Jurkat NFAT-GFP cells by lentiviral mediated gene transfer, followed by selection with puromycin or blasticidin. No drug selection was used in case the construct lacked an antibiotic resistance gene. The SAR-expressing Jurkat-NFAT-GFP cells were cocultured with the target cells at E:T ratio of approximately 1:2 for approximately 4 hours to 18 hours. When the interaction between SIRs and their target antigen results in activation of the NFAT pathway, GFP expression is induced. […] GFP expression was monitored by FACS analysis. The Jurkat-NFAT-GFP (parental) cells were used as control. The structure of different constructs can be determined based on their names. […] The sequence of the other constructs in the table can be similarly determined from their names and by referring to the different Tables of this disclosure that provide the names and SEQ ID NO of the different modules. Alternatively, the composition and modular architecture of the different SAR constructs can be determined from their sequences by bioinformatics tools, including using nucleic acid and amino acids homology searches. A SAR is considered positive in the assay in case the SAR expressing Jurkat-NFAT-GFP cells show greater % GFP positive cells when cultured with the target cell line as compared to parental Jurkat-NFAT-GFP cells. […] In general, the number +/-, +, 2+, 3+, 4+, 5+ refer to approximately 5%, 10%, 20%, 30%, 40% and 50% GFP positive cells. The % of GFP induction in the above assay is dependent not only the relative strength of the SAR but also, among other factors, on the relative level of expression of the SAR in the JNG cells and the relative level of expression of the target antigen in the target cell line. To control for the difference in gene transduction efficiency of the different SAR constructs, the experiment was conducted with JNG cells transduced with SAR constructs co-expressing a drug resistance gene (e.g., puromycin or PAC) followed by drug selection to generate a stable population of SAR-expressing cells. It is to be noted that the drug resistance gene (e.g., PAC) in the SAR constructs is optional and in vivo studies were conducted with SAR constructs lacking the PAC gene.

Row | Molecule | GFP induction / activity (L363 cells; co-culture with L363 cells) | GFP induction / activity (RAJI cells; co-culture with RAJI cells) | GFP induction / activity (RAJI-CD19-KO cells; co-culture with RAJI-CD19-KO cells) | NFAT-GFP ASSAY: L363 (L363 cells; co-culture with L363) | NFAT-GFP ASSAY: Raji (RAJI cells) | NFAT-GFP ASSAY: Raji-CD19-KO (RAJI-CD19-KO cells)
1 | CD8SP-BCMA-FHVH-93-G4S-TCR-Vg9-F-P2A-IgHSP-CD20-vHH2-HCD25-G4S-TCR-Vd2-F-F2A-PAC (protein) MALPVTALLLPLALLLHAARPACEVQLLESGGGLIQPGGSLRLSCAASGFTFSSHAMTWVRQAPGKGLEWVSAISGSGDYTHYADSVKGRFTISRDNSKNTVYLQMNSLRAEDSAVYYCAKDEDGGSLLGHRGQGTLVTVSSGTGGGGSGGGGSGGGGSEFAGHLEQPQISSTKTLSKTARLECVVSGITISATSVYWYRERPGEVIQFLVSISYDGTVRKESGIPSGKFEVDRIPETSTSTLTIHNVEKQDIATYYCALWEAQQELGKKIKVFGPGTKLIITDKQLDKQLDADVSPKPTIFLPSIAETKLQKAGTYLCLLEKFFPDVIKIHWQEKKSNTILGSQEGNTMKTNDTYMKFSWLTVPEKSLDKEHRCIVRHENNKNGVDQEIIFPPIKTDVITMDPKDNCSKDANDTLLLQLTNTSAYYMYLLLLLKSVVYFAIITCCLLRRTAFCCNGEKSRAKRSGSGATNFSLLKQAGDVEENPGPTSATMDWIWRILFLVGAATGAHSGPQVQLQESGGGLAQAGGSLRLSCAASGRTFSMGWFRQAPGKEREFVAAITYSGGSPYYASSVRGRFTISRDNAKNTVYLQMNSLKPEDTAVYYCAANPTYGSDWNAENWGQGTQVTVSSGSGGGGSGGGGSGGGGSFEAIELVPEHQTVPVSIGVPATLRCSMKGEAIGNYYINWYRKTQGNTMTFIYREKDIYGPGFKDNFQGDIDIAKNLAVLKILAPSERDEGSYYCACDTLGMGGEYTDKLIFGKGTRVTVEPRSQPHTKPSVFVMKNGTNVACLVKEFYPKDIRINLVSSKKITEFDPAIVISPSGKYNAVKLGKYEDSNSVTCSVQHDNKTVHSTDFEVKTDSTDHVKPKETENTKQPSKSCHKPKAIVHTEKVNMMSLTVLGLRMLFAKTVAVNFLLTAKLFFLRAKRSGSGVKQTLNFDLLKLAGDVESNPGPSRAHMTEYKPTVRLATRDDVPRAVRTLAAAFADYPATRHTVDPDRHIERVTELQELFLTRVGLDIGKVWVADDGAAVAVWTTPESVEAGAVFAEIGPRMAELSGSRLAAQQQMEGLLAPHRPKEPAWFLATVGVSPDHQGKGLGSAVVLPGVEAAERAGVPAFLETSAPRNLPFYERLGFTVTADVEVPEGPRTWCMTRKPGA | robust induction of GFP | robust induction of GFP | robust induction of GFP |  |  | 
2 | 22131 (protein) MALPVTALLLPLALLLHAARPACEVQLLESGGGLIQPGGSLRLSCAASGFTFSSHAMTWVRQAPGKGLEWVSAISGSGDYTHYADSVKGRFTISRDNSKNTVYLQMNSLRAEDSAVYYCAKDEDGGSLLGHRGQGTLVTVSSGTGGGGSGGGGSGGGGSEFDIQMTQSPSSLSASVGDRVTITCKASDHINNWLAWYQQKPGQAPKLLIYGATTLETGVPSRFSGSGSGTDYTLTISSLQPEDFATYYCQQSWNTPWTFGQGTKLEIKRLEDLKNVFPPEVAVFEPSKAEIAHTQKATLVCLATGFYPDHVELSWWVNGKEVHSGVCTDPQPLKEQPALNDSRYCLSSRLRVSATFWQNPRNHFRCQVQFYGLSENDEWTQDRAKPVTQIVSAEAWGRADCGITSASYHQGVLSATILYEILLGKATLYAVLVSALVLMAMVKRKDSRGRAKRSGSGATNFSLLKQAGDVEENPGPTSATMDWIWRILFLVGAATGAHSGPQVQLQESGGGLAQAGGSLRLSCAASGRTFSMGWFRQAPGKEREFVAAITYSGGSPYYASSVRGRFTISRDNAKNTVYLQMNSLKPEDTAVYYCAANPTYGSDWNAENWGQGTQVTVSSGSGGGGSGGGGSGGGGSFEQVQLQQPGAELVKPGASVKMSCKASGYAFSSYWINWMKQKPGQGLEWIGQIYPGDGDTNYNGKFKGRATLTADTSSSTAYMQLSSLTSEDSAVYFCARSITTVVGCAMDYWGQGTSVTVSSTRIQNPDPAVYQLRDSKSSDKSVCLFTDFDSQTNVSQSKDSDVYITDKCVLDMRSMDFKSNSAVAWSNKSDFACANAFNNSIIPEDTFFPSSDVPCDVKLVEKSFETDTNLNFQNLSVIGFRILLLKVAGFNLLMTLRLWSSRAKRSGSGVKQTLNFDLLKLAGDVESNPGPSRGHMTEYKPTVRLATRDDVPRAVRTLAAAFADYPATRHTVDPDRHIERVTELQELFLTRVGLDIGKVWVADDGAAVAVWTTPESVEAGAVFAEIGPRMAELSGSRLAAQQQMEGLLAPHRPKEPAWFLATVGVSPDHQGKGLGSAVVLPGVEAAERAGVPAFLETSAPRNLPFYERLGFTVTADVEVPEGPRTWCMTRKPGA |  |  |  | 5+ (refer to approximately 5%, 10%, 20%, 30%, 40% and 50% GFP positive cells) | 4+ (refer to approximately 5%, 10%, 20%, 30%, 40% and 50% GFP positive cells) | 5+ (refer to approximately 5%, 10%, 20%, 30%, 40% and 50% GFP positive cells)
3 | 22215 (protein) MALPVTALLLPLALLLHAARPACPYINIYNAEPANPSEKNSPTQYAYGTGAVVRGAEFDIQMTQSPSSLSASVGDRVTITCKASDHINNWLAWYQQKPGQAPKLLIYGATTLETGVPSRFSGSGSGTDYTLTISSLQPEDFATYYCQQSWNTPWTFGQGTKLEIKRLEDLKNVFPPEVAVFEPSKAEIAHTQKATLVCLATGFYPDHVELSWWVNGKEVHSGVCTDPQPLKEQPALNDSRYCLSSRLRVSATFWQNPRNHFRCQVQFYGLSENDEWTQDRAKPVTQIVSAEAWGRADCGITSASYHQGVLSATILYEILLGKATLYAVLVSALVLMAMVKRKDSRGRAKRSGSGATNFSLLKQAGDVEENPGPTSATMDWIWRILFLVGAATGAHSGPQVQLQESGGGLAQAGGSLRLSCAASGRTFSMGWFRQAPGKEREFVAAITYSGGSPYYASSVRGRFTISRDNAKNTVYLQMNSLKPEDTAVYYCAANPTYGSDWNAENWGQGTQVTVSSGSGGGGSGGGGSGGGGSFEQVQLQQPGAELVKPGASVKMSCKASGYAFSSYWINWMKQKPGQGLEWIGQIYPGDGDTNYNGKFKGRATLTADTSSSTAYMQLSSLTSEDSAVYFCARSITTVVGCAMDYWGQGTSVTVSSTRIQNPDPAVYQLRDSKSSDKSVCLFTDFDSQTNVSQSKDSDVYITDKCVLDMRSMDFKSNSAVAWSNKSDFACANAFNNSIIPEDTFFPSSDVPCDVKLVEKSFETDTNLNFQNLSVIGFRILLLKVAGFNLLMTLRLWSSRAKRSGSGVKQTLNFDLLKLAGDVESNPGPSRGHMTEYKPTVRLATRDDVPRAVRTLAAAFADYPATRHTVDPDRHIERVTELQELFLTRVGLDIGKVWVADDGAAVAVWTTPESVEAGAVFAEIGPRMAELSGSRLAAQQQMEGLLAPHRPKEPAWFLATVGVSPDHQGKGLGSAVVLPGVEAAERAGVPAFLETSAPRNLPFYERLGFTVTADVEVPEGPRTWCMTRKPGA |  |  |  |  | Raji (3+), Raji-CD19-KO (3+) (refer to approximately 5%, 10%, 20%, 30%, 40% and 50% GFP positive cells) | Raji (3+), Raji-CD19-KO (3+) (refer to approximately 5%, 10%, 20%, 30%, 40% and 50% GFP positive cells)
